In US8563520B2, “Treatment of ocular disease with inhibitors of alpha2 macroglobulin protein” (McGill University, priority 2005, dated 2013):
Where two headings read alike, the source gives them in different places.

Test system: Rat Retina
Method: The following experiment was conducted in order to assess changes in gene expression induced in the retina after intraocular injection of α2 macroglobulin protein. 2 μg of α2 macroglobulin protein was intraocularly injected into the right eye of rats (n=3) and the left eye was used as a control. One rat was tested at Day 3, one rat was tested at Day 7 and one rat was tested at Day 14. Retinas were isolated and mRNA was collected. Samples from each of the rats were studied by gene microassays. Retinas were carefully dissected out to insure that only retinal mRNAs were prepared for gene microarray studies. Samples were obtained from control eyes.
Total RNA was isolated from retinal tissue using TRIZOL® (Life Technologies). RNA was then further purified using the RNAEASY® (QIAGEN®). The integrity of the RNA samples was assessed by running aliquots on RNA 6000 Nano LabChip (Agilent) using the 2100 bioanalyzer (Agilent).
Probe synthesis, hybridization and scanning were done according to Affymetrix protocol, as a service at the McGill University and Genome Quebec Innovation Centre. For the experiments shown, Rat U34 Genome Arrays (8,700 genes, Affymetrix) were used. Briefly, RNA samples were first converted to double stranded cDNA (T7-(dT)24 primer (Genset)). Then the cDNAs were purified and used to generate the biotinylated cRNA probes (Bioarray High Yield RNA transcript labeling kit (Enzo diagnostics)). An aliquot of the purified cRNA was analyzed on RNA 6000 Nano LabChip (Agilent) to verify the integrity and size distribution. Immediately after hybridization the chip was placed in the Affymetrix GeneChip Fluidics Station 400 (Affymetrix). In total, 10 low-stringency washes (63 SSPE, 0.01% Tween-20, 0.005% Antifoam) and 4 high-stringency washes (100 mM MES, 0.1 M NaCl, 0.01% Tween-20, 50 C) were performed (all reagents from Sigma). The array was then incubated with SAPE® (streptavidin/phycoerythrin stain, Molecular Probes), followed by 10 low stringency washes. The array was incubated with biotinylated anti-streptavidin antibody (Vector Laboratories) and washed again with 15 low stringency washes. Specifically bound probe was detected by placing the array in the Agilent GeneArray scanner 2500 (Affymetrix). The scanned images were analyzed using the Microarray Analysis Suite version 5.0 (Affymetrix).
The fold change was analyzed by […] data for the control eye from the data on the eye injected with α2 macroglobulin. A fold change of 2 or greater indicates upregulation. A fold of 0.5 to 2 indicates no change. A fold change of 0.5 or less indicates downregulation.

[1] = gene complexin 2 (1368584_a_at)
[2] = gene crystallin, beta A2 (1388385_at)
[3] = gene crystallin, beta B1 (1369985_at)
[4] = gene crystallin, beta B2 (1367684_at)
[5] = gene crystallin, beta B3 (1367990_at)
[6] = gene crystallin, gamma N (predicted) (1384241_at)
[7] = gene death effector domain-containing (1369003_at)
[8] = gene fibrinogen-like 2 (1392894_at)
[9] = gene forkhead box E3 (1370797_at)
[10] = gene glycoprotein 2 (zymogen granule membrane) (1386933_at)
[11] = gene glycoprotein (transmembrane) nmb (1368187_at)
[12] = gene guanylate nucleotide binding protein 2 (1368332_at)
[13] = gene interferon induced transmembrane protein 1 (predicted) (1372013_at)
[14] = gene lens intrinsic membrane protein 2 (1368493_at)
[15] = gene membrane metallo endopeptidase (1370072_at)
[16] = gene membrane-spanning 4-domains, subfamily A, member 6B (1390510_at)
[17] = gene procollagen, type III, alpha 1 (1370959_at)
[18] = gene procollagen, type IV, alpha 1 (1372439_at)
[19] = gene procollagen, type IV, alpha 1 (1373245_at)
[20] = gene serine (or cysteine) peptidase inhibitor, clade G, member 1 (1372254_at)
[21] = gene similar to Beta crystallin S (Gamma crystallin S) (1388435_at)
[22] = gene similar to FRBZ1 protein (FRBZ1) (predicted) (1398217_at)
[23] = gene similar to Phakinin (Beaded filament structural protein 2) (1383812_at)
[24] = gene similar to RCK (predicted) (1389868_at)
[25] = gene similar to RIKEN cDNA 1300010M03 (predicted) (1376087_at)
[26] = gene similar to RIKEN cDNA 1500009M05 (predicted) (1382193_at)
[27] = gene similar to RIKEN cDNA 4930555G01 (predicted) (1391152_at)
[28] = gene similar to RNA-binding protein Musashi2-S (predicted) (1390813_at)
[29] = gene similar to keratin complex 2, basic, gene 6a (1373349_at)
[30] = gene similar to mKIAA1450 protein (predicted) (1391315_at)
[31] = gene similar to serine (or cysteine) proteinase inhibitor (1388746_at)
[32] = gene solute carrier family 6 (neurotransmitter transporter, GABA) (1369715_at)
[33] = gene solute carrier family 6 (neurotransmitter transporter, taurine) (1368778_at)
[34] = gene spectrin alpha 1 (1386212_at)

B1: α2m: α2 macroglobulin protein injected intraocularly into normal rat eyes (protein, UniProt P06238 28-1472, looked up)
Alpha-2-macroglobulin: SAPQKPIYMVMVPSLLHAGTPEKACFLFSHLNETVAVRVSLESVRGNQSLFTDLVVDKDLFHCTSFTVPQSSSDEVMFFTVQVKGATHEFRRRSTVLVKKKESLVFAQTDKPIYKPGQTVRFRVVSLDESFHPLNELIPLLYIQDPKNNRIAQWQNFNLEGGLKQLSFPLSSEPTQGSYKVVIRTESGRTVEHPFSVEEFVLPKFEVRVTVPETITILEEEMNVSVCGIYTYGKPVPGRVTVNICRKYSNPSNCFGEESVAFCEKLSQQLDGRGCFSQLVKTKSFQLKRQEYEMQLDVHAKIQEEGTGVEETGKGLTKITRTITKLSFVNVDSHFRQGIPFVGQVLLVDGRGTPIPYETIFIGADEANLYINTTTDKHGLARFSINTDDIMGTSLTVRAKYKDSNACYGFRWLTEENVEAWHTAYAVFSPSRSFLHLESLPDKLRCDQTLEVQAHYILNGEAMQELKELVFYYLMMAKGGIVRAGTHVLPLKQGQMRGHFSILISMETDLAPVARLVLYAILPNGEVVGDTAKYEIENCLANKVDLVFRPNSGLPATRALLSVMASPQSLCGLRAVDQSVLLMKPETELSASLIYDLLPVKDLTGFPQGADQREEDTNGCVKQNDTYINGILYSPVQNTNEEDMYGFLKDMGLKVFTNSNIRKPKVCERLRDNKGIPAAYHLVSQSHMDAFLESSESPTETRRSYFPETWIWDLVVVDSAGVAEVEVTVPDTITEWKAGAFCLSNDTGLGLSPVVQFQAFQPFFVELTMPYSVIRGEAFTLKATVLNYLPTCIRVAVQLEASPDFLAAPEEKEQRSHCICMNQRHTASWAVIPKSLGNVNFTVSAEALNSKELCGNEVPVVPEQGKKDTIIKSLLVEPEGLENEVTFNSLLCPMGAEVSELIALKLPSDVVEESARASVTVLGDILGSAMQNTQDLLKMPYGCGEQNMVLFAPNIYVLDYLNETQQLTQEIKTKAIAYLNTGYQRQLNYKHRDGSYSTFGDKPGRNHANTWLTAFVLKSFAQARKYIFIDEVHITQALLWLSQQQKDNGCFRSSGSLLNNAMKGGVEDEVTLSAYITIALLEMSLPVTHPVVRNALFCLDTAWKSARGGAGGSHVYTKALLAYAFALAGNQDTKKEILKSLDEEAVKEEDSVHWTRPQKPSVSVALWYQPQAPSAEVEMTAYVLLAYLTTEPAPTQEDLTAAMLIVKWLTKQQNSHGGFSSTQDTVVALHALSKYGSATFTRAKKAAQVTIHSSGTFSTKFQVNNNNQLLLQRVTLPTVPGDYTVKVTGEGCVYLQTSLKYSVLPREEEFPFTVVVQTLPGTCEDPKAHTSFQISLNISYTGSRSESNMAIADVKMVSGFIPLKPTVKMLERSVHVSRTEVSNNHVLIYLDKVSNQTVNLSFTVQQDIPIRDLKPAVVKVYDYYEKDEFAVAKYSAPCSTDYGNA
- Fold Change (α2m vs normal) Day 7 (gene complement factor B (1389470_at)): 3.3
- Fold Change (α2m vs normal) Day 3 [1]: 0.5
- Fold Change (α2m vs normal) Day 7 [1]: 0.2
- Fold Change (α2m vs normal) Day 3 [2]: 0.5
- Fold Change (α2m vs normal) Day 7 [2]: 3.6
- Fold Change (α2m vs normal) Day 14 [2]: 2.0
- Fold Change (α2m vs normal) Day 3 [3]: 0.5
- Fold Change (α2m vs normal) Day 7 [3]: 3.4
- Fold Change (α2m vs normal) Day 14 [3]: 2.0
- Fold Change (α2m vs normal) Day 3 [4]: 0.4
- Fold Change (α2m vs normal) Day 7 [4]: 3.7
- Fold Change (α2m vs normal) Day 14 [4]: 2.2
- Fold Change (α2m vs normal) Day 3 [5]: 0.4
- Fold Change (α2m vs normal) Day 7 [5]: 4.2
- Fold Change (α2m vs normal) Day 14 [5]: 2.0
- Fold Change (α2m vs normal) Day 3 [6]: 0.5
- Fold Change (α2m vs normal) Day 7 [6]: 3.9
- Fold Change (α2m vs normal) Day 3 [7]: 0.5
- Fold Change (α2m vs normal) Day 7 [7]: 0.4
- Fold Change (α2m vs normal) Day 3 (gene decorin (1370956_at)): 3.7
- Fold Change (α2m vs normal) Day 7 (gene decorin (1370956_at)): 12.6
- Fold Change (α2m vs normal) Day 3 [8]: 2.1
- Fold Change (α2m vs normal) Day 7 [8]: 2.1
- Fold Change (α2m vs normal) Day 3 [9]: 0.4
- Fold Change (α2m vs normal) Day 7 [9]: 2.9
- Fold Change (α2m vs normal) Day 14 [9]: 2.2
- Fold Change (α2m vs normal) Day 3 [10]: 0.5
- Fold Change (α2m vs normal) Day 7 [10]: 2.1
- Fold Change (α2m vs normal) Day 3 [11]: 3.9
- Fold Change (α2m vs normal) Day 7 [11]: 7.4
- Fold Change (α2m vs normal) Day 3 [12]: 2.2
- Fold Change (α2m vs normal) Day 7 [12]: 2.1
- Fold Change (α2m vs normal) Day 3 [13]: 5.8
- Fold Change (α2m vs normal) Day 7 [13]: 4.2
- Fold Change (α2m vs normal) Day 3 [14]: 0.5
- Fold Change (α2m vs normal) Day 7 [14]: 2.5
- Fold Change (α2m vs normal) Day 3 (gene lumican (1367749_at)): 6.1
- Fold Change (α2m vs normal) Day 7 (gene lumican (1367749_at)): 4.1
- Fold Change (α2m vs normal) Day 14 (gene lumican (1367749_at)): 0.4
- Fold Change (α2m vs normal) Day 3 (gene lysozyme (1370154_at)): 7.8
- Fold Change (α2m vs normal) Day 7 (gene lysozyme (1370154_at)): 2.8
- Fold Change (α2m vs normal) Day 3 [15]: 0.5
- Fold Change (α2m vs normal) Day 7 [15]: 5.3
- Fold Change (α2m vs normal) Day 14 [15]: 2.2
- Fold Change (α2m vs normal) Day 3 [16]: 5.1
- Fold Change (α2m vs normal) Day 7 [16]: 2.1
- Fold Change (α2m vs normal) Day 3 [17]: 3.7
- Fold Change (α2m vs normal) Day 7 [17]: 3.4
- Fold Change (α2m vs normal) Day 3 [18]: 0.3
- Fold Change (α2m vs normal) Day 7 [18]: 17.5
- Fold Change (α2m vs normal) Day 14 [18]: 2.4
- Fold Change (α2m vs normal) Day 3 [19]: 0.3
- Fold Change (α2m vs normal) Day 7 [19]: 13.2
- Fold Change (α2m vs normal) Day 14 [19]: 2.3
- Fold Change (α2m vs normal) Day 3 [20]: 3.0
- Fold Change (α2m vs normal) Day 7 [20]: 3.3
- Fold Change (α2m vs normal) Day 3 [21]: 0.5
- Fold Change (α2m vs normal) Day 7 [21]: 2.8
- Fold Change (α2m vs normal) Day 14 [21]: 2.9
- Fold Change (α2m vs normal) Day 3 [22]: 0.5
- Fold Change (α2m vs normal) Day 7 [22]: 0.2
- Fold Change (α2m vs normal) Day 3 [23]: 0.4
- Fold Change (α2m vs normal) Day 7 [23]: 2.7
- Fold Change (α2m vs normal) Day 3 [24]: 0.5
- Fold Change (α2m vs normal) Day 7 [24]: 0.2
- Fold Change (α2m vs normal) Day 3 [25]: 0.5
- Fold Change (α2m vs normal) Day 7 [25]: 0.4
- Fold Change (α2m vs normal) Day 3 [26]: 0.4
- Fold Change (α2m vs normal) Day 7 [26]: 0.2
- Fold Change (α2m vs normal) Day 3 [27]: 2.0
- Fold Change (α2m vs normal) Day 7 [27]: 5.6
- Fold Change (α2m vs normal) Day 3 [28]: 0.5
- Fold Change (α2m vs normal) Day 7 [28]: 0.2
- Fold Change (α2m vs normal) Day 3 [29]: 7.3
- Fold Change (α2m vs normal) Day 7 [29]: 0.4
- Fold Change (α2m vs normal) Day 3 [30]: 0.5
- Fold Change (α2m vs normal) Day 7 [30]: 0.2
- Fold Change (α2m vs normal) Day 3 [31]: 0.4
- Fold Change (α2m vs normal) Day 7 [31]: 2.6
- Fold Change (α2m vs normal) Day 3 [32]: 0.5
- Fold Change (α2m vs normal) Day 7 [32]: 0.4
- Fold Change (α2m vs normal) Day 3 [33]: 0.5
- Fold Change (α2m vs normal) Day 7 [33]: 0.2
- Fold Change (α2m vs normal) Day 14 [33]: 2.3
- Fold Change (α2m vs normal) Day 3 [34]: 0.5
- Fold Change (α2m vs normal) Day 7 [34]: 2.1
- Fold Change (α2m vs normal) Day 3 (gene — (1393766_at, AI112375)): 0.4
- Fold Change (α2m vs normal) Day 7 (gene — (1393766_at, AI112375)): 0.3
- Fold Change (α2m vs normal) Day 14 (gene — (1393766_at, AI112375)): 3.6
- Fold Change (α2m vs normal) Day 3 (gene — (1394837_at, BF405797)): 0.3
- Fold Change (α2m vs normal) Day 7 (gene — (1394837_at, BF405797)): 0.2
- Fold Change (α2m vs normal) Day 3 (gene — (1395129_at, BE107340)): 0.5
- Fold Change (α2m vs normal) Day 7 (gene — (1395129_at, BE107340)): 0.3
